{"source": "patent US12618050B2", "about": "“Engineered polypeptides that exhibit increased catalytic efficiency for unnatural cofactors and uses thereof” (The Regents of the University of California, priority 2018, dated 2026)", "molecules": {"B1": {"name": "I195R-A93K-Y39Q: Bs GDH with I195R, A93K, Y39Q substitutions (SEQ ID NO:6) (protein)", "chain": "MYPDLKGKVVAITGAASGLGKAMAIRFGKEQAKVVINYQSNKQDPNEVKEEVIKAGGEAVVVQGDVTKEEDVKNIVQTAIKEFGTLDIMINNKGLENPVPSHEMPLKDWDKVIGTNLTGAFLGSREAIKYFVENDIKGNVINMSSVHEVIPWPLFVHYAASKGGIKLMTETLALEYAPKGIRVNNIGPGAINTPRNAEKFADPKQKADVESMIPMGYIGEPEEIAAVAAWLASKEASYVTGITLFADGGMTQYPSFQAGRG", "modifications": "I195R A93K Y39Q mutant GDH coding sequence"}}, "key": {"[1]": {"test": "GDH enzymatic assay with NAD^+ as cofactor", "assay_type": "biochemical", "details": "for decrease of catalytic efficiency on NAD^+: versus wild type", "protocol": "(§1) GDH enzymatic assays. The GDH activity was measured as described in Hilt et al. (Biochimica et biophysica acta 1076(2):298-304 (1991)). The reactions were started by adding the purified protein to the assay mixture containing 35 mM Tris-HCl buffer (pH 8.0), 3 mM NAD^+, NADP^+ or NMN^+ and 140 mM glucose. The absorbance variation at 340 nm was detected by a spectrophotometer at 25° C."}, "[2]": {"test": "GDH enzymatic assay with NADP^+ as cofactor", "assay_type": "biochemical", "details": "for decrease of catalytic efficiency on NADP^+: versus wild type", "protocol": "as §1"}, "[3]": {"test": "GDH enzymatic assay with NMN^+ as cofactor", "assay_type": "biochemical", "details": "for overall specificity switch towards NMN^+ from NADP^+ / overall specificity switch towards NMN^+ from NAD^+: compared to wild type", "protocol": "as §1"}, "[4]": {"test": "Protein expression levels of GDH variants", "design": "species or system Escherichia coli", "details": "expressed in E. coli", "protocol": "Proteins were purified as 6×His tag fusion at the N-terminus. E. coli BL21 (DE3) with plasmids were inoculated into LB medium with 200 mg L^−1 ampicillin. Cells were induced with 0.5 mM IPTG and expressed for 24 hours at 30° C. with shaking at 250 rpm. BM3 cytochrome P450 was extracted with the EMD Millipore™ BugBuste Plus Lysonase Kit and purified using the HisPur™ Ni-NTA Superflow Purification System according to the manufacturer's instructions. Other proteins were purified using His-Spin Protein Miniprep kit (Zymo Research Corporation, CA). The purified proteins were quantified by Bradford assay."}, "[5]": {"test": "XenA-GDH coupled cycling biotransformation of ketoisophorone to levodione", "assay_type": "biochemical", "protocol": "(§2) Coupled enzymatic biotransformation. All biotransformation reactions were performed in buffer A at 30° C. for 24 hours. Reaction buffer A, modified from that disclosed in Chaparro-Riggers et al., Advanced Synthesis & Catalysis 349(8-9):1521-1531 (2007)), contained 200 mM potassium phosphate buffer (pH 7.5), 1 M NaCl, 300 mM D-glucose, 6 mM NMN^+ (or NADP^+ as the positive control), and substrates. All assays were performed in triplicate, with no proteins or no cofactors added as negative controls. The protein loading for GDH variants was kept at 0.33 mg mL^−1 or 11.7 μM. The various enzymes for biotransformation reactions were added at the concentration of 0.75 mg mL^−1.\nFor XenA-GDH coupled cycling assays, the substrates ketoisophorone, citral, or trans-2-hexen-1-al were added at 33 mM, 10 mM, or 50 mM, respectively. For the OYE3-GDH coupled cycling assays, the substrate 4-phenyl-3-butyn-2-one was added at 5 mM. At various time points over 24 hours, 100 μL samples were taken and extracted with 100 μL ethyl acetate. Conversion was determined via GC-FID with octanol as an internal standard (see below). For NfsB-GDH coupled cycling assays, 2 mM nitrofurazone was used as the substrate. Nitrofurazone conversion was measured spectroscopically at 400 nm and quantification was performed using a standard curve. The initial levels of the above-mentioned substrates were mainly determined by their solubility in the assay buffer. For BM3-GDH coupled cycling assays, 50 μM cytochrome c (C2506 Sigma) was used as the substrate. The reduction of cytochrome c was measured spectroscopically at 550 nm. and the quantification was performed using extinction coefficient ε550 of 21.1 mM^−1 cm^−1.\nCoupled cycling conditions: All biotransformation reactions were performed in buffer A at 30° C. for 24 hours. Reaction buffer A contained 200 mM potassium phosphate buffer (pH 7.5), 1 M NaCl, 300 mM D-glucose, 6 mM NMN^+. Substrate ketoisophorone was added at 5 g/L. At various time points over 24 hours, 100 μL samples were taken and extracted with 100 μL ethyl acetate. Conversion was determined via GC-FID with octanol as an internal standard (see below)."}, "[6]": {"test": "GDH total turnover number (TTN) determination", "assay_type": "biochemical", "details": "NMN^+, GDH 0.47 μM, 33 mM ketoisophorone, 96 hours", "protocol": "GDH Total Turnover Number (TTN) Determination. Total turnover number (TTN) was determined by the number of moles of product formed divided by the moles of purified GDH added. The assays were performed in reaction buffer A, as shown above, at 30° C. Ketoisophorone (33 mM) was used as the substrate. The reaction was started by spiking purified proteins (0.0132 mg mL^−1 or 0.47 μM for GDH, 0.75 mg mL^−1 for XenA). Samples were taken every 12 hours for 96 hours. The extraction and GC-FID analysis were performed using a similar method as mentioned above."}, "[7]": {"test": "XenA-GDH coupled cycling assay, citral", "assay_type": "biochemical", "details": "10 mM citral, 24 hours, NMN^+", "protocol": "as §2\n(§3) For XenA-GDH coupled cycling assays, the substrates ketoisophorone, citral, or trans-2-hexen-1-al were added at 33 mM, 10 mM, or 50 mM, respectively. […] Conversion was determined via GC-FID with octanol as an internal standard (see below). […] Nitrofurazone conversion was measured spectroscopically at 400 nm and quantification was performed using a standard curve. The initial levels of the above-mentioned substrates were mainly determined by their solubility in the assay buffer. […] The reduction of cytochrome c was measured spectroscopically at 550 nm. and the quantification was performed using extinction coefficient ε550 of 21.1 mM^−1 cm^−1."}, "[8]": {"test": "XenA-GDH coupled cycling assay, trans-2-hexen-1-al", "assay_type": "biochemical", "details": "50 mM, 24 hours, NMN^+", "protocol": "as §2, §3"}, "[9]": {"test": "OYE3-GDH coupled cycling assay", "assay_type": "biochemical", "details": "OYE3, NMN^+", "protocol": "as §2, §3"}, "[10]": {"test": "NfsB-GDH coupled cycling assay", "assay_type": "biochemical", "details": "NMN^+", "protocol": "as §2, §3"}, "cytochrome c": {"tested_on": "cytochrome c", "test": "BM3-GDH coupled cycling assay", "assay_type": "biochemical", "details": "BM3 W1046S, NMNH generated in situ", "protocol": "as §2, §3"}}, "data": [{"molecule": "B1", "values": [{"measurement": "Kcat", "setting": "[1]; cofactor NAD^+", "value": "0.41 ± 0.026", "unit": "s⁻¹"}, {"measurement": "Km", "setting": "[1]; cofactor NAD^+", "value": "3.7 ± 0.93", "unit": "mM"}, {"measurement": "decrease of catalytic efficiency on NAD^+", "setting": "[1]", "value": 38, "unit": "fold"}, {"measurement": "decrease of catalytic efficiency on NAD^+", "setting": "[1]; listed as GDH Triple", "value": "1,600 fold"}, {"measurement": "Kcat", "setting": "[2]; cofactor NADP^+", "value": "4.4 ± 0.034", "unit": "s⁻¹"}, {"measurement": "Km", "setting": "[2]; cofactor NADP^+", "value": "0.61 ± 0.15", "unit": "mM"}, {"measurement": "decrease of catalytic efficiency on NADP^+", "setting": "[2]", "value": "1,600 fold"}, {"measurement": "decrease of catalytic efficiency on NADP^+", "setting": "[2]; listed as GDH Triple", "value": 38, "unit": "fold"}, {"measurement": "increase in catalytic efficiency over the wild-type enzyme towards NMN^+", "setting": "[3]", "value": "1,000 fold"}, {"measurement": "improvement in catalytic efficiency over I195R", "setting": "[3]; NMN^+", "value": 4, "unit": "fold"}, {"measurement": "Kcat", "setting": "[3]; cofactor NMN^+", "value": "3.1 ± 0.037", "unit": "s⁻¹"}, {"measurement": "Km", "setting": "[3]; cofactor NMN^+", "value": "6.1 ± 0.83", "unit": "mM"}, {"measurement": "overall specificity switch towards NMN^+ from NADP^+", "setting": "[3]", "value": "1,600,000 fold"}, {"measurement": "overall specificity switch towards NMN^+ from NAD^+", "setting": "[3]", "value": "38,000 fold"}, {"measurement": "overall specificity switch towards NMN^+ from NADP^+", "setting": "[3]; listed as GDH Triple", "value": "38,000 fold"}, {"measurement": "overall specificity switch towards NMN^+ from NAD^+", "setting": "[3]; listed as GDH Triple", "value": "1,600,000 fold"}, {"measurement": "Expression level", "setting": "[4]", "value": 25.37, "unit": "μg protein/ml culture"}, {"measurement": "initial productivity of levodione", "setting": "[5]; NMN^+ as cycling cofactor, XenA in excess, GDH 11.7 μM", "value": "~1.15", "unit": "µM/s"}, {"measurement": "initial turnover frequency", "setting": "[5]; NMN^+, Bs GDH loading 11.7 μM", "value": "~0.10", "unit": "s⁻¹"}, {"measurement": "improvement of NMN^+-dependent productivity", "setting": "[5]; versus wild type Bs GDH", "value": 22, "unit": "fold"}, {"measurement": "total turnover number (TTN)", "setting": "[6]", "value": "39,000"}, {"measurement": "conversion of citral", "setting": "[7]", "value": "~76", "unit": "%"}, {"measurement": "conversion of trans-2-hexen-1-al", "setting": "[8]", "value": "~49", "unit": "%"}, {"measurement": "conversion of 4-phenyl-3-butyne-2-one", "setting": "[9]", "value": "> 99", "unit": "%"}, {"measurement": "conversion of nitrofurazone", "setting": "[10]", "value": "~92", "unit": "%"}, {"measurement": "conversion (reduction) of cytochrome c", "setting": "cytochrome c", "value": "> 99", "unit": "%"}]}]}
